Laboratory results: patent US20040265880A1, “Genomic and proteomic approaches for the development of cell culture medium” (Sigma-Aldrich Co., priority 2003, published 2004)

Test system: HEK-293 cells
Experiment: Resazurin high throughput proliferation assay, HEK-293
Format: cell-based, human
Conditions: versus base medium with 1% FBS; each ligand at three concentrations
Description: Resazurin is a metabolic dye which is converted to a fluorescent product. The greater the amount of the fluorescent product that is generated, the more metabolism, which directly correlates with cell number.
In this assay, resazurin was added to HEK-293 cells plated in each well of a 24-well assay plate containing a test medium containing one of the 16 ligands corresponding to the positive growth factors/cytokines and incubated at 37° C. After a 30 minute incubation, the plate was analyzed on a standard fluorescence plate reader. A higher RFU value from the plate reader translates to a higher cell density in the wells.
Briefly, the 16 ligands corresponding to positive growth factor/cytokine receptors were tested in the resazurin assay, each ligand at three different concentrations. […]
Cells were plated in each well of a 24-well tissue culture treated plate containing 1 ml of a base medium. […] After sufficient incubation time to convert some of the resazurin, the fluorescence was measured on a HTS 7000 Plus BioAssay Reader (Perkin-Elmer, Boston, Mass.). Readings were taken once a day until the culture was confluent (typically about 4 days). A plate with base medium only (no cells) was used as a blank and subtracted from the RFU reading to establish the final RFU values.

B1: oncostatin M (protein, UniProt P13725 26-221, looked up)
Oncostatin-M: AAIGSCSKEYRVLLGQLQKQTDLMQDTSRLLDPYIRIQGLDVPKLREHCRERPGAFPSEETLRGLGRRGFLQTLNATLGCVLHRLADLEQRLPKAQDLERSGLNIEDLEKLQMARPNILGLRNNIYCMAQLLDNSDTAEPTKAGRGASQPPTPTPASDAFQRKLEGCRFLHGYHRFMHSVGRVFSKWGESPNRSRR
notes: ligand of oncostatin M receptor
effect on HEK-293 proliferation (RFU, resazurin): significant effect
